Reference: patent US20230357342A1

Tests used:
[1] = biological target: His-tagged human IL-18BP (human) (UniProt O95998); assay: alphaLISA of free IL-18BP after 1 h with titrated IL-18
[2] = biological target: Fc fused human IL-18BP isoform a (IL-18BPa) (human) (UniProt O95998); assay: SPR, Fc-IL-18BPa captured via anti-human IgG, IL-18 as analyte, 1:1 model
[3] = biological target: PEGylated modified IL-18 polypeptide SEQ ID NO: 4 + PEG (E6K, C38A, K53A, C68A, M86C-30kPEG) (human) (UniProt Q14116); assay: cell-based or functional assay
[4] = biological target: PEGylated modified IL-18 polypeptide SEQ ID NO: 5 + PEG (E6K, V11I, C38A, K53A, T63A, C68A, C76A, C127A, M86C-30kPEG) (human) (UniProt Q14116); assay: cell-based or functional assay
PEGylated modified IL-18 polypeptide SEQ ID NO: 5 + PEG (E6K, V11I, C38A, K53A, T63A, C68A, C76A, C127A, M86C-30kPEG) (human), sequence (Q14116 other isoform, or with tags, fused parts or gaps with the stated changes): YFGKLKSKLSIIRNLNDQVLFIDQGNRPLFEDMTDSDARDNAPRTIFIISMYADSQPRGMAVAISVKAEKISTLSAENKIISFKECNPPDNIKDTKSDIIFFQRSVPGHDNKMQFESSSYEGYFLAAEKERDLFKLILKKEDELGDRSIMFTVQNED

[5] = biological target: PEGylated modified IL-18 polypeptide SEQ ID NO: 6 + PEG (E6K, V11I, C38A, K53A, T63A, C68A, C76A, C127A, D98C-30kPEG) (human) (UniProt Q14116); assay: cell-based or functional assay
[6] = biological target: PEGylated modified IL-18 polypeptide SEQ ID NO: 9 + PEG (E6K, C38A, K53A, C68A, D98C-30kPEG) (human) (UniProt Q14116); assay: cell-based or functional assay
PEGylated modified IL-18 polypeptide SEQ ID NO: 9 + PEG (E6K, C38A, K53A, C68A, D98C-30kPEG) (human), sequence (Q14116 other isoform, or with tags, fused parts or gaps C38A K53A C68A D98C C38A K53A C68A D98C): as the sequence (Q14116 other isoform, or with tags, fused parts or gaps with the stated changes) above, with I11V, A63T, A76C, C86M, D98C, A127C counted along it

[7] = biological target: modified IL-18 polypeptide SEQ ID NO: 11 (E6K, V11I, C38A, K53A, C76A, C127A) (human) (UniProt Q14116); assay: cell-based or functional assay
[8] = biological target: modified IL-18 polypeptide SEQ ID NO: 204 (V11I, C38A, K53A, C76A, C127A) (human) (UniProt Q14116); assay: cell-based or functional assay
modified IL-18 polypeptide SEQ ID NO: 204 (V11I, C38A, K53A, C76A, C127A) (human), sequence (Q14116 37-193 V47I/C74A/K89A/C112A/C163A): as the sequence (Q14116 other isoform, or with tags, fused parts or gaps with the stated changes) above, with K6E, A63T, A68C, C86M counted along it

[9] = biological target: modified IL-18 polypeptide SEQ ID NO: 205 (V11I, C38A, K53A, T63A, C76A, C127A) (human) (UniProt Q14116); assay: cell-based or functional assay
modified IL-18 polypeptide SEQ ID NO: 205 (V11I, C38A, K53A, T63A, C76A, C127A) (human), sequence (Q14116 37-193 V47I/C74A/K89A/T99A/C112A/C163A): as the sequence (Q14116 other isoform, or with tags, fused parts or gaps with the stated changes) above, with K6E, A68C, C86M counted along it

[10] = biological target: modified IL-18 polypeptide SEQ ID NO: 206 (V11I, C38A, K53A, S55A, C76A, C127A) (human) (UniProt Q14116); assay: cell-based or functional assay
modified IL-18 polypeptide SEQ ID NO: 206 (V11I, C38A, K53A, S55A, C76A, C127A) (human), sequence (Q14116 37-193 V47I/C74A/K89A/S91A/C112A/C163A): as the sequence (Q14116 other isoform, or with tags, fused parts or gaps with the stated changes) above, with K6E, S55A, A63T, A68C, C86M counted along it

[11] = biological target: modified IL-18 polypeptide SEQ ID NO: 207 (V11I, C38A, M51G, K53A, C76A, C127A) (human) (UniProt Q14116); assay: cell-based or functional assay
modified IL-18 polypeptide SEQ ID NO: 207 (V11I, C38A, M51G, K53A, C76A, C127A) (human), sequence (Q14116 37-193 V47I/C74A/M87G/K89A/C112A/C163A): as the sequence (Q14116 other isoform, or with tags, fused parts or gaps with the stated changes) above, with K6E, M51G, A63T, A68C, C86M counted along it

[12] = biological target: modified IL-18 polypeptide SEQ ID NO: 208 (V11I, C38A, K53A, D54A, C76A, C127A) (human) (UniProt Q14116); assay: cell-based or functional assay
modified IL-18 polypeptide SEQ ID NO: 208 (V11I, C38A, K53A, D54A, C76A, C127A) (human), sequence (Q14116 37-193 V47I/C74A/K89A/D90A/C112A/C163A): as the sequence (Q14116 other isoform, or with tags, fused parts or gaps with the stated changes) above, with K6E, D54A, A63T, A68C, C86M counted along it

[13] = biological target: modified IL-18 polypeptide SEQ ID NO: 209 (F2A, V11I, C38A, K53A, C76A, C127A) (human) (UniProt Q14116); assay: cell-based or functional assay
modified IL-18 polypeptide SEQ ID NO: 209 (F2A, V11I, C38A, K53A, C76A, C127A) (human), sequence (Q14116 other isoform, or with tags, fused parts or gaps V11I C38A K53A C76A C127A V11I C38A K53A C76A C127A): as the sequence (Q14116 other isoform, or with tags, fused parts or gaps with the stated changes) above, with F2A, K6E, A63T, A68C, C86M counted along it

[14] = biological target: modified IL-18 polypeptide SEQ ID NO: 210 (V11I, E31A, C38A, K53A, C76A, C127A) (human) (UniProt Q14116); assay: cell-based or functional assay
modified IL-18 polypeptide SEQ ID NO: 210 (V11I, E31A, C38A, K53A, C76A, C127A) (human), sequence (Q14116 37-193 V47I/E67A/C74A/K89A/C112A/C163A): as the sequence (Q14116 other isoform, or with tags, fused parts or gaps with the stated changes) above, with K6E, E31A, A63T, A68C, C86M counted along it

[15] = biological target: modified IL-18 polypeptide SEQ ID NO: 211 (V11I, T34A, C38A, K53A, C76A, C127A) (human) (UniProt Q14116); assay: cell-based or functional assay
[16] = biological target: modified IL-18 polypeptide SEQ ID NO: 212 (V11I, D35A, C38A, K53A, C76A, C127A) (human) (UniProt Q14116); assay: cell-based or functional assay
modified IL-18 polypeptide SEQ ID NO: 212 (V11I, D35A, C38A, K53A, C76A, C127A) (human), sequence (Q14116 37-193 V47I/D71A/C74A/K89A/C112A/C163A): as the sequence (Q14116 other isoform, or with tags, fused parts or gaps with the stated changes) above, with K6E, D35A, A63T, A68C, C86M counted along it

[17] = biological target: modified IL-18 polypeptide SEQ ID NO: 213 (V11I, S36A, C38A, K53A, C76A, C127A) (human) (UniProt Q14116); assay: cell-based or functional assay
[18] = biological target: modified IL-18 polypeptide SEQ ID NO: 214 (V11I, D37A, C38A, K53A, C76A, C127A) (human) (UniProt Q14116); assay: cell-based or functional assay
modified IL-18 polypeptide SEQ ID NO: 214 (V11I, D37A, C38A, K53A, C76A, C127A) (human), sequence (Q14116 37-193 V47I/D73A/C74A/K89A/C112A/C163A): as the sequence (Q14116 other isoform, or with tags, fused parts or gaps with the stated changes) above, with K6E, D37A, A63T, A68C, C86M counted along it

[19] = biological target: modified IL-18 polypeptide SEQ ID NO: 215 (V11I, E31A, D37A, C38A, K53A, C76A, C127A) (human) (UniProt Q14116); assay: cell-based or functional assay
[20] = biological target: modified IL-18 polypeptide SEQ ID NO: 216 (V11I, C38A, D40A, K53A, C76A, C127A) (human) (UniProt Q14116); assay: cell-based or functional assay
[21] = biological target: modified IL-18 polypeptide SEQ ID NO: 217 (V11I, C38A, N41A, K53A, C76A, C127A) (human) (UniProt Q14116); assay: cell-based or functional assay
[22] = biological target: modified IL-18 polypeptide SEQ ID NO: 218 (V11I, C38A, K53A, C76A, C127A, D132A) (human) (UniProt Q14116); assay: cell-based or functional assay
[23] = biological target: modified IL-18 polypeptide SEQ ID NO: 219 (V11I, C38A, K53A, C76A, G108A, C127A) (human) (UniProt Q14116); assay: cell-based or functional assay
[24] = biological target: modified IL-18 polypeptide SEQ ID NO: 220 (V11I, C38A, K53A, C76A, H109A, C127A) (human) (UniProt Q14116); assay: cell-based or functional assay
modified IL-18 polypeptide SEQ ID NO: 220 (V11I, C38A, K53A, C76A, H109A, C127A) (human), sequence (Q14116 37-193 V47I/C74A/K89A/C112A/H145A/C163A): as the sequence (Q14116 other isoform, or with tags, fused parts or gaps with the stated changes) above, with K6E, A63T, A68C, C86M, H109A counted along it

[25] = biological target: modified IL-18 polypeptide SEQ ID NO: 221 (V11I, C38A, K53A, C76A, D110A, C127A) (human) (UniProt Q14116); assay: cell-based or functional assay
modified IL-18 polypeptide SEQ ID NO: 221 (V11I, C38A, K53A, C76A, D110A, C127A) (human), sequence (Q14116 37-193 V47I/C74A/K89A/C112A/D146A/C163A): as the sequence (Q14116 other isoform, or with tags, fused parts or gaps with the stated changes) above, with K6E, A63T, A68C, C86M, D110A counted along it

[26] = biological target: modified IL-18 polypeptide SEQ ID NO: 222 (K8R, V11I, C38A, C76A, Q103E, C127A) (human) (UniProt Q14116); assay: cell-based or functional assay
modified IL-18 polypeptide SEQ ID NO: 222 (K8R, V11I, C38A, C76A, Q103E, C127A) (human), sequence (Q14116 other isoform, or with tags, fused parts or gaps V11I C38A C76A Q103E C127A V11I C38A C76A Q103E C127A): as the sequence (Q14116 other isoform, or with tags, fused parts or gaps with the stated changes) above, with K6E, K8R, A53K, A63T, A68C, C86M, Q103E counted along it

[27] = biological target: modified IL-18 polypeptide SEQ ID NO: 223 (K8E, V11I, C38A, C76A, Q103R, C127A) (human) (UniProt Q14116); assay: cell-based or functional assay
[28] = biological target: modified IL-18 polypeptide SEQ ID NO: 224 (V11I, C38A, C76A, Q103K, C127A) (human) (UniProt Q14116); assay: cell-based or functional assay
modified IL-18 polypeptide SEQ ID NO: 224 (V11I, C38A, C76A, Q103K, C127A) (human), sequence (Q14116 37-193 V47I/C74A/C112A/Q139K/C163A): as the sequence (Q14116 other isoform, or with tags, fused parts or gaps with the stated changes) above, with K6E, A53K, A63T, A68C, C86M, Q103K counted along it

[29] = biological target: modified IL-18 polypeptide SEQ ID NO: 225 (V11I, C38A, S55H, C76A, C127A) (human) (UniProt Q14116); assay: cell-based or functional assay
modified IL-18 polypeptide SEQ ID NO: 225 (V11I, C38A, S55H, C76A, C127A) (human), sequence (Q14116 37-193 V47I/C74A/S91H/C112A/C163A): as the sequence (Q14116 other isoform, or with tags, fused parts or gaps with the stated changes) above, with K6E, A53K, S55H, A63T, A68C, C86M counted along it

[30] = biological target: modified IL-18 polypeptide SEQ ID NO: 226 (V11I, C38A, S55R, C76A, C127A) (human) (UniProt Q14116); assay: cell-based or functional assay
modified IL-18 polypeptide SEQ ID NO: 226 (V11I, C38A, S55R, C76A, C127A) (human), sequence (Q14116 37-193 V47I/C74A/S91R/C112A/C163A): as the sequence (Q14116 other isoform, or with tags, fused parts or gaps with the stated changes) above, with K6E, A53K, S55R, A63T, A68C, C86M counted along it

[31] = biological target: modified IL-18 polypeptide SEQ ID NO: 227 (V11I, C38A, S55T, C76A, C127A) (human) (UniProt Q14116); assay: cell-based or functional assay
modified IL-18 polypeptide SEQ ID NO: 227 (V11I, C38A, S55T, C76A, C127A) (human), sequence (Q14116 37-193 V47I/C74A/S91T/C112A/C163A): as the sequence (Q14116 other isoform, or with tags, fused parts or gaps with the stated changes) above, with K6E, A53K, S55T, A63T, A68C, C86M counted along it

[32] = biological target: modified IL-18 polypeptide SEQ ID NO: 228 (V11I, C38A, C76A, S105I, C127A) (human) (UniProt Q14116); assay: cell-based or functional assay
modified IL-18 polypeptide SEQ ID NO: 228 (V11I, C38A, C76A, S105I, C127A) (human), sequence (Q14116 37-193 V47I/C74A/C112A/S141I/C163A): as the sequence (Q14116 other isoform, or with tags, fused parts or gaps with the stated changes) above, with K6E, A53K, A63T, A68C, C86M, S105I counted along it

[33] = biological target: modified IL-18 polypeptide SEQ ID NO: 229 (V11I, C38A, C76A, S105K, C127A) (human) (UniProt Q14116); assay: cell-based or functional assay
[34] = biological target: modified IL-18 polypeptide SEQ ID NO: 28 (E6K, C38A, K53A, T63A, C76A, C127A) (human) (UniProt Q14116); assay: cell-based or functional assay
[35] = biological target: modified IL-18 polypeptide SEQ ID NO: 30 (E6K, V11I, C38A, K53A, T63A, C76A, C127A) (human) (UniProt Q14116); assay: cell-based or functional assay
[36] = biological target: modified IL-18 polypeptide SEQ ID NO: 4 (E6K, C38A, K53A, C68A, M86C) (human) (UniProt Q14116); assay: cell-based or functional assay
[37] = biological target: modified IL-18 polypeptide SEQ ID NO: 5 (E6K, V11I, C38A, K53A, T63A, C68A, C76A, M86C, C127A) (human) (UniProt Q14116); assay: cell-based or functional assay
modified IL-18 polypeptide SEQ ID NO: 5 (E6K, V11I, C38A, K53A, T63A, C68A, C76A, M86C, C127A) (human), sequence (Q14116 other isoform, or with tags, fused parts or gaps with the stated changes): as the sequence (Q14116 other isoform, or with tags, fused parts or gaps with the stated changes) above

[38] = biological target: modified IL-18 polypeptide SEQ ID NO: 57 (E6K, C38S, K53A) (human) (UniProt Q14116); assay: cell-based or functional assay
[39] = biological target: modified IL-18 polypeptide SEQ ID NO: 59 (E6K, C38A, K53A) (human) (UniProt Q14116); assay: cell-based or functional assay
modified IL-18 polypeptide SEQ ID NO: 59 (E6K, C38A, K53A) (human), sequence (Q14116 other isoform, or with tags, fused parts or gaps C38A K53A C38A K53A): as the sequence (Q14116 other isoform, or with tags, fused parts or gaps with the stated changes) above, with I11V, A63T, A68C, A76C, C86M, A127C counted along it

[40] = biological target: modified IL-18 polypeptide SEQ ID NO: 6 (E6K, V11I, C38A, K53A, T63A, C68A, C76A, D98C, C127A) (human) (UniProt Q14116); assay: cell-based or functional assay
[41] = biological target: modified IL-18 polypeptide SEQ ID NO: 60 (E6K, C38Q, K53A) (human) (UniProt Q14116); assay: cell-based or functional assay
modified IL-18 polypeptide SEQ ID NO: 60 (E6K, C38Q, K53A) (human), sequence (Q14116 other isoform, or with tags, fused parts or gaps C38Q K53A C38Q K53A): as the sequence (Q14116 other isoform, or with tags, fused parts or gaps with the stated changes) above, with I11V, A38Q, A63T, A68C, A76C, C86M, A127C counted along it

[42] = biological target: modified IL-18 polypeptide SEQ ID NO: 61 (E6K, C38A, K53A, C76A) (human) (UniProt Q14116); assay: cell-based or functional assay
modified IL-18 polypeptide SEQ ID NO: 61 (E6K, C38A, K53A, C76A) (human), sequence (Q14116 other isoform, or with tags, fused parts or gaps C38A K53A C76A C38A K53A C76A): as the sequence (Q14116 other isoform, or with tags, fused parts or gaps with the stated changes) above, with I11V, A63T, A68C, C86M, A127C counted along it

[43] = biological target: modified IL-18 polypeptide SEQ ID NO: 62 (E6K, C38A, K53A, C127A) (human) (UniProt Q14116); assay: cell-based or functional assay
modified IL-18 polypeptide SEQ ID NO: 62 (E6K, C38A, K53A, C127A) (human), sequence (Q14116 other isoform, or with tags, fused parts or gaps C38A K53A C127A C38A K53A C127A): as the sequence (Q14116 other isoform, or with tags, fused parts or gaps with the stated changes) above, with I11V, A63T, A68C, A76C, C86M counted along it

[44] = biological target: modified IL-18 polypeptide SEQ ID NO: 63 (E6K, C38A, K53A, C76A, C127A) (human) (UniProt Q14116); assay: cell-based or functional assay
modified IL-18 polypeptide SEQ ID NO: 63 (E6K, C38A, K53A, C76A, C127A) (human), sequence (Q14116 other isoform, or with tags, fused parts or gaps C38A K53A C76A C127A C38A K53A C76A C127A): as the sequence (Q14116 other isoform, or with tags, fused parts or gaps with the stated changes) above, with I11V, A63T, A68C, C86M counted along it

[45] = biological target: modified IL-18 polypeptide SEQ ID NO: 8 (E6K, V11I, C38A, K53A, T63A, C68A, C76A, T95C, C127A) (human) (UniProt Q14116); assay: cell-based or functional assay
[46] = biological target: modified IL-18 polypeptide SEQ ID NO: 9 (E6K, C38A, K53A, C68A, D98C) (human) (UniProt Q14116); assay: cell-based or functional assay
modified IL-18 polypeptide SEQ ID NO: 9 (E6K, C38A, K53A, C68A, D98C) (human), sequence (Q14116 other isoform, or with tags, fused parts or gaps C38A K53A C68A D98C C38A K53A C68A D98C): as the sequence (Q14116 other isoform, or with tags, fused parts or gaps with the stated changes) above, with I11V, A63T, A76C, C86M, D98C, A127C counted along it

[47] = biological target: wild type IL-18 (SEQ ID NO: 1, native sequence) (human) (UniProt Q14116); assay: cell-based or functional assay

Fc fused human IL-18BP isoform a (IL-18BPa) (human), sequence (O95998 31-194): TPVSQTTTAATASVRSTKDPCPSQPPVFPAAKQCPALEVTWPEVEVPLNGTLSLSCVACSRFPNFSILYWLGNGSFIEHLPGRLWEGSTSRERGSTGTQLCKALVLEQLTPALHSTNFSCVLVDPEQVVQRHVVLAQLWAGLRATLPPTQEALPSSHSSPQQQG
wild type IL-18 (SEQ ID NO: 1, native sequence), sequence (Q14116 37-193): as the sequence (Q14116 other isoform, or with tags, fused parts or gaps with the stated changes) above, with K6E, I11V, A38C, A53K, A63T, A68C, A76C, C86M, A127C counted along it

## modified IL-18 polypeptide SEQ ID NO: 59 (E6K, C38A, K53A) (from UniProt Q14116 37-193) (ligand)
[1]
  Kd: 36 nM

## modified IL-18 polypeptide SEQ ID NO: 57 (E6K, C38S, K53A) (from UniProt Q14116 37-193) (ligand)
[2]
  Kd: 2.72 nM
  koff: 0.0031 s⁻¹
  kon: 1.14e+06 M⁻¹ s⁻¹

## wild type IL-18 (SEQ ID NO: 1, native sequence) (from UniProt Q14116 37-193) (ligand)
[1]
  Kd: 0.414 nM
[2]
  Kd: 0.27 nM
  koff: 0.000383 s⁻¹
  kon: 1.49e+06 M⁻¹ s⁻¹

## Fc fused human IL-18BP isoform a (IL-18BPa) (from UniProt O95998 31-194) (Fc fusion)
[3]
  IC50, IFNγ secretion by NK-92 cells: 34 nM
[4]
  IC50, IFNγ secretion by NK-92 cells: 12 nM
[5]
  IC50, IFNγ secretion by NK-92 cells: 14.3 nM
[6]
  IC50, IFNγ secretion by NK-92 cells: 27.2 nM
[7]
  IC50, IFNγ secretion by NK-92 cells: 532 nM
[8]
  IC50, IFNγ secretion by NK-92 cells: 1.62 nM
[9]
  IC50, IFNγ secretion by NK-92 cells: 7.52 nM
[10]
  IC50, IFNγ secretion by NK-92 cells: 10.2 nM
[11]
  IC50, IFNγ secretion by NK-92 cells: 733 nM
[12]
  IC50, IFNγ secretion by NK-92 cells: 47.6 nM
[13]
  IC50, IFNγ secretion by NK-92 cells: 5.05 nM
[14]
  IC50, IFNγ secretion by NK-92 cells: 1.17 nM
[15]
  IC50, IFNγ secretion by NK-92 cells: 21.3 nM
[16]
  IC50, IFNγ secretion by NK-92 cells: 3.62 nM
[17]
  IC50, IFNγ secretion by NK-92 cells: 7.85 nM
[18]
  IC50, IFNγ secretion by NK-92 cells: 2.22 nM
[19]
  IC50, IFNγ secretion by NK-92 cells: 3.71 nM
[20]
  IC50, IFNγ secretion by NK-92 cells: 3.23 nM
[21]
  IC50, IFNγ secretion by NK-92 cells: 0.681 nM
[22]
  IC50, IFNγ secretion by NK-92 cells: 6.08 nM
[23]
  IC50, IFNγ secretion by NK-92 cells: 3.98 nM
[24]
  IC50, IFNγ secretion by NK-92 cells: 1.81 nM
[25]
  IC50, IFNγ secretion by NK-92 cells: 3.18 nM
[26]
  IC50, IFNγ secretion by NK-92 cells: 1.07 nM
[27]
  IC50, IFNγ secretion by NK-92 cells: 7.29 nM
[28]
  IC50, IFNγ secretion by NK-92 cells: 0.823 nM
[29]
  IC50, IFNγ secretion by NK-92 cells: 0.456 nM
[30]
  IC50, IFNγ secretion by NK-92 cells: 0.885 nM
[31]
  IC50, IFNγ secretion by NK-92 cells: 0.44 nM
[32]
  IC50, IFNγ secretion by NK-92 cells: 0.809 nM
[33]
  IC50, IFNγ secretion by NK-92 cells: 0.176 nM
[34]
  IC50, IFNγ secretion by NK-92 cells: 233 nM
[35]
  IC50, IFNγ secretion by NK-92 cells: 488 nM
[36]
  IC50, IFNγ secretion by NK-92 cells: 396 nM
[37]
  IC50, IFNγ secretion by NK-92 cells: 62.4 nM
[38]
  IC50, IFNγ secretion by NK-92 cells: 146 nM
[39]
  IC50, IFNγ secretion by NK-92 cells: 654 nM
[40]
  IC50, IFNγ secretion by NK-92 cells: 5.85 nM
[41]
  IC50, IFNγ secretion by NK-92 cells: 780 nM
[42]
  IC50, IFNγ secretion by NK-92 cells: 779 nM
[43]
  IC50, IFNγ secretion by NK-92 cells: 284 nM
[44]
  IC50, IFNγ secretion by NK-92 cells: 286 nM
[45]
  IC50, IFNγ secretion by NK-92 cells: 522 nM
[46]
  IC50, IFNγ secretion by NK-92 cells: 961 nM
[47]
  IC50, IFNγ secretion by NK-92 cells: 0.787 nM
